Columns and labels:
AtzR [1] = assay: Fold induction of GFP reporter by cyanuric acid with co-expressed AtzR; assay type: cell-based; details: for response to cyanuric acid (inducibility) / fold activation (ratio of GFP with and without cyanuric acid): 200 μM cyanuric acid; for response to cyanuric acid (inducibility) / uninduced baseline (no cyanuric acid): AtzR co-expressed; for increase in reporter expression in response to cyanuric acid: E. coli, medium not stated
Protocol: (§1) To measure fold repression, each reporter plasmid was co-transformed with low and high copy sensor plasmid separately. The end results include two test versions for each reporter plasmid: (the reporter plasmid, low copy sensor plasmid), (the reporter, high copy sensor plasmid), reporter plasmids were transformed with either of the sensor plasmids. Similar to the process of measuring promoter activity, the activities of at least 3 biological replicates were measured for each reporter and sensor plasmid pair. The only difference was that 50 μg/mL kanamycin and […] Spectinomycin were used to maintain both of the reporter and sensor plasmids. The fold repression was calculated as a ratio of the fluorescence of reporter divided by the fluorescence of this reporter when it was paired with a sensor plasmid. To measure fold induction, the process of obtaining fold repression was followed. The only difference was the addition of 200 μM cyanuric acid during the growth. The fold induction was calculated as a ratio of the fluorescence of the induced state divided by the fluorescence of the repressed state.

AtzR [2] = assay: Fold repression of GFP reporter by co-expressed AtzR; assay type: cell-based; details: minimal medium
Protocol: as §1

DH10B E. coli cells = assay: Promoter activity: constitutive GFP reporter expression without AtzR; assay type: cell-based; details: for transcriptional activity compared with WT promoter, measured by reporter expression: E. coli, promoter only, no AtzR; for GFP reporter expression of cells carrying only the promoter: no AtzR present, rich and minimal media
Protocol: Fluorescence measurement: To measure promoter activities, transformed reporter plasmids (including WT promoter plasmid) were transformed into DH10B cells (NEB) using electroporation and plated cells on LB agar plates with kanamycin (50 ug/mL). After overnight growth at 37° C., at least 3 individual colonies were selected for each reporter plasmid and inoculated into 150 μL LB medium with 50 μg/mL kanamycin in a 96-well plate. After 3 hours of growth at 37° C. in a multi-plate shaker (1100 rpm, Southwest Science), cells were diluted 1:50 into 150 μL LB medium or MOPS medium (supplemented with 0.4% glucose and 1× BME vitamin) with 50 μg/mL kanamycin in a 96-well plate. Cells were grown at 37° C. with shaking (1100 rpm). After 16 hours, OD600 and fluorescence (excitation at 488 nm and emission at 520 nm with a gain of 40) of each well was measured using a multi-well plate reader (Synergy HTX, BioTek .Inc). Fluorescence was normalized against OD600. Blank (normalized fluorescence of cells carrying no GFP) was subtracted from those measurements. Mean and standard deviation of each reporter plasmid activity were calculated from measurements of 3 biological replicates.

AtzR [3] = assay: Cyanuric acid dose response and visual detection limit of the AtzR biosensor; assay type: cell-based, E. coli DH10B; details: for cyanuric acid concentration at which signal begins to saturate: rich and minimal media (125 ppm)
Protocol: To obtain transfer functions of various reporter and sensor plasmid pairs, different concentrations of cyanuric acid were delivered via DMSO to cultures (less than 1% of the total volume). After growth for 16 hours, fluorescence was measured and normalized similar to previous experiments.
Visual detection limit: To determine the visual detection limit in LB and MOPS media, E. coli DH10B with or without constitutive GFP expression was grown in LB with appropriate antibiotics for 16 hours in […] on a shaker(1100 rpm). Two 2 mL aliquots from each culture were spun down at 5000 G for 5 minutes in a benchtop centrifuge at room temperature. The media was aspirated out and the cell pellets resuspended in either 2 mL LB or 2 mL MOPS media. The spin-down and resuspension procedure was repeated two more times. Then, cells without GFP in LB (or MOPS) were mixed with cells carrying GFP in LB (or MOPS) to 150 μL with various ratios (cells without GFP-cells with GFP: 100%-0%, 95%-5%, 90%-10%, 85%-15%, 70%-30%, 55%-45%, 30%-70%, 0%-100%). After measuring the fluorescence and OD600 of the mixed cultures in a 96-well plate, the cultures were transferred to ultra-thin strip tubes ordered by increasing percentage of cells carrying GFP. Five individuals were asked to identify the culture that they could be confident to tell apart (in terms of the color of the culture) from the culture containing no cells with GFP (100%-0%). The identification process for cultures in LB and MOPS was performed by placing culture tubes in front a piece of white paper. The weighted average of fluorescence of cultures was identified by five individuals for cultures in LB and MOPS. The calculated weights averages were defined and used as the visual detection limits in FIGS. 7-10 related experiments.

Chain of AtzR (as listed by the source): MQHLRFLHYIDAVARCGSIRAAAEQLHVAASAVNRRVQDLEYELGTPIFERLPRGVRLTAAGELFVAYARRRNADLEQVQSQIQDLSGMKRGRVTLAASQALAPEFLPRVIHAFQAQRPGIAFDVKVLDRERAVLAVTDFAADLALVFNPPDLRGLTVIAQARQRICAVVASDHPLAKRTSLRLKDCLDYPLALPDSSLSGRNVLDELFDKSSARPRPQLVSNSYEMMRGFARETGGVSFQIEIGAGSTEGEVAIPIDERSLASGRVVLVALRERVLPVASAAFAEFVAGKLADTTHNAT

Promoter 10: group 2 promoter variant; apFAB spacer replaced with RBS L and R (DNA TTGACAGGTGCCGGATCGGCACCTATAATAGATTCATGATGA; expressed or natural sequence)
response to cyanuric acid (inducibility) (AtzR [1]): lack of cyanuric acid response | increase in reporter expression in response to cyanuric acid (AtzR [1]): greater than two-fold increase | fold repression (ratio of GFP expression without and with AtzR) (AtzR [2]): 50 fold | transcriptional activity compared with WT promoter, measured by reporter expression (DH10B E. coli cells): transcriptionally more active than WT promoter

Promoter 12: group 2 promoter variant, sequence SEQ ID NO: 14 (DNA GGTGCCGACACGGCACCTTTTTGTACCTATAATAGATTCATGATGA; expressed or natural sequence)
transcriptional activity compared with WT promoter, measured by reporter expression (DH10B E. coli cells): transcriptionally more active than WT promoter

Promoter 13: group 2 promoter variant; apFAB spacer replaced with RBS in R-L orientation (DNA TTGACAGGTGCCGATCCGGCACCTATAATAGATTCATGATGA; expressed or natural sequence)
increase in reporter expression in response to cyanuric acid (AtzR [1]): greater than two-fold increase | transcriptional activity compared with WT promoter, measured by reporter expression (DH10B E. coli cells): transcriptionally more active than WT promoter

Promoter 15: group 2 promoter variant; RBS placed upstream of -35 (DNA GGTGCCGATCCGGCACCTTGACATCGCATCTTTTTGTACCTATAATAGATTCATGATGA; expressed or natural sequence)
transcriptional activity compared with WT promoter, measured by reporter expression (DH10B E. coli cells): transcriptionally more active than WT promoter | lower threshold of detection of cyanuric acid (AtzR [3]; minimal media): ~15 µM | cyanuric acid concentration at which signal begins to saturate (AtzR [3]): 1 mM | lower threshold of detection of cyanuric acid (AtzR [3]; rich media): ~25 µM

Promoter 16: group 2 promoter variant, sequence SEQ ID NO: 18 (DNA GGTGCCGATCCGGCACCTTTTTGTACCTATAATAGATTCATGATGA; expressed or natural sequence)
transcriptional activity compared with WT promoter, measured by reporter expression (DH10B E. coli cells): transcriptionally more active than WT promoter

B1: Promoter 14: group 2 promoter variant, sequence SEQ ID NO: 16 (nucleic acid)
DNA: GACCTAACTGGTGCCGATCCGGCACCGATCTTGTTGACATCGCATCTTTTTGTACCTATAATAGATTCATGATGA
modifications: expressed or natural sequence
transcriptional activity compared with WT promoter, measured by reporter expression (DH10B E. coli cells): transcriptionally more active than WT promoter

B2: Promoter 1: group 1 promoter variant; Pseudomonas -10 site replaced with consensus E. coli -10 site (nucleic acid)
DNA: ATGCGAGTCAAAGCAAGATCGGTGCCGGATCGGCACCAGTTAGGTCGGAAAAAGGCGGCAGTCAAGTGCGCAGGGCGGCGTTATAATTGAACGAA
modifications: expressed or natural sequence
notes: group 1 promoter variant; Pseudomonas -10 site replaced with consensus E. coli -10 site
transcriptional activity compared with WT promoter, measured by reporter expression (DH10B E. coli cells): transcriptionally more active than WT promoter | lower threshold of detection of cyanuric acid (AtzR [3]; minimal media): ~15 µM | cyanuric acid concentration at which signal begins to saturate (AtzR [3]): 1 mM | lower threshold of detection of cyanuric acid (AtzR [3]; rich media): ~25 µM

B3: Promoter 2: group 1 promoter variant; sequence 3' of ABS 3 replaced with corresponding region of apFab71 (nucleic acid)
DNA: TCGGTGCCGGATCGGCACCAGTTAGGTCGGAAAAAGGCGGCAGTCAAGTGCGCTTTTTGTACCTATAATAGATTCATGATGA
modifications: expressed or natural sequence
response to cyanuric acid (inducibility) (AtzR [1]): inducible | fold activation (ratio of GFP with and without cyanuric acid) (AtzR [1]; medium not specified): approximately 10 fold | fold activation (ratio of GFP with and without cyanuric acid) (AtzR [1]; minimal media): 15 fold | increase in reporter expression in response to cyanuric acid (AtzR [1]): greater than two-fold increase | uninduced baseline (no cyanuric acid) (AtzR [1]): about 4000 fluorescence units | transcriptional activity compared with WT promoter, measured by reporter expression (DH10B E. coli cells): transcriptionally more active than WT promoter | lower threshold of detection of cyanuric acid (AtzR [3]; minimal media): ~15 µM | cyanuric acid concentration at which signal begins to saturate (AtzR [3]): 1 mM | lower threshold of detection of cyanuric acid (AtzR [3]; rich media): ~25 µM

B4: Promoter 5: group 1 promoter variant with consensus E. coli -35 and apFab71 3' sequence, on a high-copy number plasmid (nucleic acid)
DNA: TCGGTGCCGGATCGGCACCAGTTAGGTCGGAAAAAGGCGGCAGACAAGTGCGCTTTTTGTACCTATAATAGATTCATGATGA
fold activation (ratio of GFP with and without cyanuric acid) (AtzR [1]; medium not specified): approximately 10 fold | increase in reporter expression in response to cyanuric acid (AtzR [1]): greater than two-fold increase | uninduced baseline (no cyanuric acid) (AtzR [1]): 22000 fluorescence units | transcriptional activity compared with WT promoter, measured by reporter expression (DH10B E. coli cells): transcriptionally more active than WT promoter

B5: Promoter 6: group 1 promoter variant with consensus E. coli -35 and apFab71 3' sequence, on a low-copy number plasmid (nucleic acid)
DNA: TCGGTGCCGGATCGGCACCAGTTAGGTCGGAAAAAGGCGGCAGACAAGTGCGCTTTTTGTACCTATAATAGATTCATGATGA
fold activation (ratio of GFP with and without cyanuric acid) (AtzR [1]; medium not specified): approximately 10 fold | increase in reporter expression in response to cyanuric acid (AtzR [1]): greater than two-fold increase | fold repression (ratio of GFP expression without and with AtzR) (AtzR [2]): 10 fold | transcriptional activity compared with WT promoter, measured by reporter expression (DH10B E. coli cells): transcriptionally more active than WT promoter

B6: Promoter 7: group 1 promoter variant of presumed intermediate strength, -35 site mutated toward E. coli consensus (nucleic acid)
DNA: TCGGTGCCGGATCGGCACCAGTTAGGTCGGAAAAAGGCGGCAGACAAGTGCGCTTTTTGTACCTATATAGATTCATGATGA
modifications: expressed or natural sequence
transcriptional activity compared with WT promoter, measured by reporter expression (DH10B E. coli cells): transcriptionally more active than WT promoter | GFP reporter expression of cells carrying only the promoter (DH10B E. coli cells): highest expression

B7: Promoter 8: group 1 promoter variant of presumed intermediate strength, -35 site mutated toward E. coli consensus (nucleic acid)
DNA: TCGGTGCCGGATCGGCACCAGTTAGGTCGGAAAAAGGCGGCAGACAAGTGCGCTTTTTGTACCTATAAAGATTCATGATGA
modifications: expressed or natural sequence
increase in reporter expression in response to cyanuric acid (AtzR [1]): greater than two-fold increase | transcriptional activity compared with WT promoter, measured by reporter expression (DH10B E. coli cells): transcriptionally more active than WT promoter | GFP reporter expression of cells carrying only the promoter (DH10B E. coli cells): highest expression

B8: Promoter 11: group 2 promoter variant; RBS placed upstream of -35 (nucleic acid)
DNA: CAAGATCGGTGCCGGATCGGCACCAGTTAGGTCTTGACATCGCATCTTTTTGTACCTATAATAGATTCATGATGA
modifications: expressed or natural sequence
transcriptional activity compared with WT promoter, measured by reporter expression (DH10B E. coli cells): transcriptionally more active than WT promoter

B9: Promoter 3: group 1 promoter variant weakened by deleting a single base from the -10 site (nucleic acid)
DNA: TCGGTGCCGGATCGGCACCAGTTAGGTCGGAAAAAGGCGGCAGTCAAGTGCGCTTTTTGTACCTATATAGATTCATGATGA
modifications: expressed or natural sequence
response to cyanuric acid (inducibility) (AtzR [1]): only promoter variant 2 was inducible

B10: Promoter 4: group 1 promoter variant weakened by deleting a single base from the -10 site (nucleic acid)
DNA: TCGGTGCCGGATCGGCACCAGTTAGGTCGGAAAAAGGCGGCAGTCAAGTGCGCTTTTTGTACCTATAAAGATTCATGATGA
modifications: expressed or natural sequence
response to cyanuric acid (inducibility) (AtzR [1]): only promoter variant 2 was inducible

— patent publication US20200239927A1, “SENSOR FOR CYANURIC ACID DETECTION” (WISCONSIN ALUMNI RESEARCH FOUNDATION, priority 2019, published 2020)
